Experimental data from the nanobody polyreactivity screen of Harvey et al. (2022).

Test: yeast display, Sf9 membrane polyspecificity reagent, FACS + sequencing; frameworks hold sequencing errors
How it was run: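 A nanobody's polyreactivity label depends on the gate it was sorted from. Yeast display cells were stained with 10% biotinylated, detergent-solubilized Sf9 membrane reagent for 1 hour at 4 °C, enriched on streptavidin microbeads and sorted by FACS. The low and high (top ~1%) gates were set on anti-HA fluorescence for expression and streptavidin fluorescence for reagent binding.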

Sequence	polyreactivity (PSR sort gate)
QVQLVESGGGLVQAGGSHRLSCAASGRINYNYAMGWYRQAPGKERELVAAISGSGGSTYYADSVKARFTISRDNAKNTVYLQMNSLKPEDTAVYYCSTSGPQYDSRNFDYWGQGTQVNVSS	low polyreactivity
QVQLVESGGGLVQAGGSLRLSCAASGLIFYRYTMGWYRQAPGKERELVAAIDDSDTSTYYADSVKGRFTISRDNAKNTVYLQMNSLKPEDTAVYYCAAVPLAPYAVRSRLDFDYWGQGTQVTVSS	low polyreactivity
QVQLVESGGGLVQAGGSLRLSCAASGITLPAYTMGWYRQAPGKERELVAAISWGGTSTYYADSVKGRFTISRDNAKNTVYLQMNSLKPEDTAVYYCNKAYATYPGYDYWGQGTQVTLSS	high polyreactivity
QVQLVESGGGLVQAGGSLRLSCAASGFIFQRYAMGWYRQAPGKERELVAAISWSGGITYYADSVKGRFTISRDNAKNTVYLQMNSLKPEDTAVYYCAAGLAVGDYYWGQGTQVTVSS	high polyreactivity
QVQLVESGGGLVQAGGSLRLSCAASGITFIYYAMGWYRQAPGKEREFVAAITFRDGDTYYADSVKGRFTISRDNAKNTVYLQMNSLKPEDTAVYYCADTYWVYYFYPGYDYWGQGTQVTVSS	low polyreactivity
QVQLVESGGGLVQAGGSLRLSCAASGSIFTPYVMGWYRQAPGKEREFVAAITQRGGRTYYADSVKGRFTISRDNAKNTVYLQMNSLKPEDTAVYYCAKTSVSRTYHRSAYDYWGQGTQVTVSS	high polyreactivity
QVQVVESGGGLVQAGGSLRLSCAASGSIFAYYAMGWYRQAPGKERELVAVISSDGSTYYADSVKGRFTISRDNAKNTVYLQMNSLKPEDTAVYYCAAYPGKYSRYNYWGQGTQVTVSS	high polyreactivity
QVQLVESGGGLVQAGGSLRLSCAASGRIFGVYAMGWYRQAPGKERELVAAISFSGGRTYYADSVKGRFTISRDNAKNTVYLQMNSLKAEDTAVYDCAALGPYDWLWAGDYWGQGTQVTVSS	low polyreactivity
QVQLVESGGGLVQAGGSLRISCAASGSTFWYYSMGWYRQAPGKERELVAAITRGGNTNYADSVKGRFTISRDNAKNTVYLQMNSLKPEDTAVYYCNADYKLADYREYNVYSFDYWGQGTQVTVSS	low polyreactivity
QVQLVESGGGLVQAGGSLRLSCAASGSIFYRYAMAWYRQAPGKERELVAAISSTGSPYYADSVKGRFTISRDNAKNTVYLQRNSLKPEDTAVYYCAARQGYRSYRRYDDWGQGTQVTVSS	high polyreactivity
QVQLVESGGGLVQAGGSLRLSCAASGFTFKKNAMGWYRQAPGKERELVDAISISGGSTYYADSVKGRFTISRDNAKNTVYLQMNSLKPEDTAVYYCAAVYISRNFFGRARGDYWGQGTQVTVSS	low polyreactivity
QVQLVESGGGLVQAGGSLRLSCAASGRIFAYYAMGWYRQAPGQERELVATITGGGDRTYYADSVKGRFTISRDNAKNTLYLQMNSLKPEDTAVYYCNARVWYYSPYYYWGQGTQVTVSS	low polyreactivity
QVQLQESGGGLVQASGSPRLSCAASGNIFDADIMGWYRQAPGKQCELVASITDGGSTNYADSEKGRFTISSDNAKNTVYLQKNSLKPEDTAVYYCAAISYRDIPTYFDYDSDYFYWGQGTHVTVSS	high polyreactivity
QVQLVESGGGLVQAGGSLRLSCAASGSTFFPNAMGWYRQAPGKERELVAAIRWRGGTYYADSVKGRFTISRDNAKNTVYLQMNSLKQEDTAVYYCATSVKPSYDYWGQGTQVTVSS	low polyreactivity
QVQLVESGGGLVQAGGSLRLSCAASGITFSRYAMGWYRQAPGKERELVATITFSGTSTFYADSVKGRFTISRDNAKNRFYLQMNSLKPEDTAVYYCARLRFGSWSTYYYWGQGTQVTVSS	low polyreactivity
QVQLVESGGGLVQAGGSLRLSCAASGHIFPTNAMGWYRQAPGKERELVAVISESVGSTYYADSVKGRFTISRDNAKNTVYLQMNSLKPEDTAVYYCATQSRYPSLDADYDYWGQGTQVTVSS	low polyreactivity
QVQLVESGGGLVQAGGSLRLSCAASGRTFAYNAMGWYRQAPGKERELVAAIRWSADSTYYADSVKGRFTISRDNAKNTVYLQMNSLKPEDTAVYYCARRRYVGAFSVATLDYWGQGTQVTVSS	high polyreactivity
QVQLVESGGGLVQAGGSLRLSCAASGFNLKWYAMGWYRQAPGKERELVAAINDRGGNTYYADSVKGRFTISRDNAKNTVYLQMNSLKPEDTAVYYCAVRGKTYRPYYYWGQGTQVTVSS	high polyreactivity
QFQLVESGGCLVQAGGSLRISSASSGSTLANYAMGWYRQAPGKEREFVAAINSGGSTYYADSVKGRFTISRDIAKNTVYLQMNSLKPEDTAVYYCAARYASPRYKSKMDYWGQGTQVTVSS	high polyreactivity
QVQLVESGGGLVQAGGSLRLSCAASGRTFSYYTMGRYRQAPGKERELVARISNRGTNTYYADSVKGRFTISRDHAKNSVNLQMNSLKTEDTAVFYCAKYYYTSIVGYDYWGQGTQVTVSS	low polyreactivity
QVQLQESGGGLVQACGSLRLSCAASGTITVLYKMGWFRQAPGKEREFVASINYGTSTYYADSVKGRFTVSRDSAKNTVYLQMNSLKPEDTAVYYCAAAYRWQDVYRYWGQGTQVTVSS	low polyreactivity
QVQLVESGGGLVQAGGSLRLSCAASGITFYRYDMVWYRQAPGKERELVAAISRSGGSTYYADSVKGRFTISRDNAKNTVYLQMNSLKPEDSAVYYCAAYILGNRDGYDYWGQGTQVTVSS	high polyreactivity

Sequence	polyreactivity (PSR sort gate)
QVQLVESGGGLVQAGGSLRLSCAASGRTSYTNAMGWYRQAPGKERELVAAINYSGGSTYYADSVKGRFTISRDNAKNTVYLQMNSLKPEDTAVYYCAAERYYWYTEMGYWGQGTQVTVSS	high polyreactivity
QVQLVESGGGLVQAGGSLRLSCAASGSIYYGKTMGWYRHAAGKEWELDAAISSGGSTKYADSVKGRFTISRDNAKNTVYLQMNSLKPEDTAVYYSAADLPRYWVTWMDYWGQGTQLTVSS	low polyreactivity
QVQLVESGGGLVQAGGSLRLSCAASGSTFTHYVMGWYRQEPGKQREIVAAISDSGSTYYADSVKGRFTISRDNAKNTVYLQMNSLNPEDTAVYYCNADDVDFYYGYGYLYYDYWGQGTQVTVSS	low polyreactivity
QVQLVESGGRLVQARGSLSLSCAASGRTFLRYAMGWYRQAPGKERELVAAISQRGGSTYYADSVKGRFTISRDNAKNTVYLQMNRLKPEDTAVYYCAADFPSSQAVDSWGQGTQVTVSS	high polyreactivity
QVQLVESGGGLVQAGGSLRLSCAASGIISTYYVMGWYRQAPGKERELVAAITGGDTSTYYADSVKGRFTISRDNAKKTVYLQMNSLKPEDTADYYCAKEYYYARGARYDYWGQGTQVTVSS	low polyreactivity
QVQIVESGAGLVQAGGSLRISCAASGRIFRYYAMGWYRQAPGKERELVAAITVSGGSKYYADSVKGRFTISRDNAKNTVYLQMNSLKPEDTAVYYCAKALRSYLFIHFDYWVQGTQVTVSS	low polyreactivity
QVQLVESGGGLVQAGGSLRLSCAAYASTLANYALGWYRQSPGKERELVAAINSGGSTYYADSVKGRFTISRDNAKNTVYLQMNSLKPEDTAVYYCAARYASPRYKSKMDYWGQGTQVTVSS	high polyreactivity
QVQLVESGGGIVQAGGTLRLSCAASGIIFGSYAMGWYRQEPGKERELVAAINSSGGSTHYADSVKGRFTISRDNSKNTVYLQMNSLKPEDTAVYYCAADGYWRDYSGYWDYYYIYDYCGQGTQVTVSS	low polyreactivity
QVQLVESGGGLVQAGGSLPLSCAASGRTFLYNAMGWYRQAPGKERELVAAITKSGGSTYYADSVKGRFTISLDNAKNTVYLQMNTLKPEDTAVYYCAAARRYAYTGGYWGQGTQVTVSS	high polyreactivity
QVQLVESGGGLVQAGGSLRLSCAASGRTFVFNGMGWYRPAPGKERELVAAINWDGGDTYYADSVKGRFTISRDNAKNTVYLQMNSLKPEDTAVYYCAAEGIFRYYTQATMEYWGQGTQVTVSS	low polyreactivity
QVHLVESGGGLVQAGGSLRLSCAAAGRTFSSYAMAWYRQAPWQERELVAAITSGGTTYYADSVKGRFTISRDNAKNTVDLQMNSLKAEDPAFYYCARRSYLYDSYLTKKKYYDYCGQGTQVTVSS	low polyreactivity
QVQLVESGGGLVQAGGSLRLSCAASGRIFKWYAMGWYRQAPGKERELVAAITWRGGSTNYADSVKGRFTISRDNAKNTVYLQMNSLKPEDTAVYYCAVGTVFLTYRGYEYWGQGTQVTVSS	high polyreactivity
QVQLVESGGGLVQAGGSLRLSCAASGYTFYWNVMGWYRQAPGKERELVAVIDWSGGSTHYADSVKGRFTISRDNAKNTVYLQMNSLKPEDTAVYYCAAESVYTWYYQDDDDYWGQGTQVTVSS	low polyreactivity
QVQLVESGGGLVQAGGSLRLSCAASGYTFRYYAMGWYRQAPGKEREFVAAITWSDSGTYYADSVKGRFTISRDNAKNTVYLQMNSLKPEDTAVYYCAAERYLSFDRYLYEYYYWGQGTQVTVSS	low polyreactivity
QVQLVESGGGLVQAGGSLRLSCAASGFIFKLYAMGWYRQAPGKERELVAAIRSSGGSTYYADSVKGRFTISRDNAKNTVYLQMNSLKPEDTAVYYCAKVGGRVRYNYWGQGTQVTVSS	high polyreactivity
QVQLVESGGGVVQAGGSLSLSCAASGNTFPVYAMGWYRQASAKERELVATITSGGSTNYADSVKGRFTISRDNAKNTVYLQMNSLKPEDTAVYYCARRAVYSKRRYDYWGQGTQVTVSS	low polyreactivity
QVQLVESGGGLVQAGGSLRLSCAASGSTFSHNAMGWYRQAPGKERELVAAIRWNGGSTHYADSVKVRFTISRDNAKNTVYLQMNSLKPEDTAVYYCAKENHYFTQGYGYWGQGTQVTVSS	low polyreactivity
QVQLVESGGGLVQAGGSLRLSCAASGIIFYDYAMGWYRQAPGKERELVAAITSSGGSTYYADSVKGRFTISRDNAKNTVYLQMNSLKPEDTAVYYCAARTRSYWSTTYYYWGQGTQVTVSS	high polyreactivity
QVQLLESGGGLVKAGGSLRLSCPASGIIFYEYVMGWYRQAPGKERELVAAINRSGGSKYYADSVKGRFTISRDNAKNTVYLQMNSLKPEDTAVYYCAAKPYYFYGMDYWGQGTQVTVSS	high polyreactivity
QVQLVESGGGLVQAGGSLRLSCAASGFIFRYNAMGWYRQAPGKERELVAVITSGGRTYYADSVKGRFTISRDNAKNTVYLQMNSLKPEDTAVYYCNADSRHRRNYDYWGQGTQVTVSS	high polyreactivity
QVQLVESDGGIVQAGGSLRLTCAASGIIFGYYVMGWYRQEPGKEGELVASITSGGSTNYADSVKGRFTISRDNAKNTVYLQMNSLKPEDTAVYYCAAEERTDTIACWRYPHDYWGQGTQVTVSS	low polyreactivity
